Experimental findings from patent US20220227848A1 (NORDIC BIOSCIENCE A S, published 2022) are described below.

In assay [1] the target is T1, truncated peptide GLPVPGCWH
T1 peptide: GLPVPGCWH
The assay is described as follows: competitive ELISA (PRO-C23 assay), peptide inhibition test. Here is the method:
(§1) ELISA-plates used for the assay development were Streptavidin-coated from Roche (cat.: 11940279). All ELISA plates were analyzed with the ELISA reader from Molecular Devices, SpectraMax M, (CA, USA). The selected monoclonal antibody was labelled with horseradish peroxidase (HRP) using the Lightning link HRP labeling kit according to the instructions of the manufacturer (Innovabioscience, Babraham, Cambridge, UK). A 96-well streptavidin plate was coated with biotin-[…] (SEQ. ID No. 1) (Genscript, USA) and incubated 30 minutes at 20° C. 20 μL of standard peptide or samples were added to appropriate wells, followed by 100 μL of HRP conjugated monoclonal antibody 10F6, and incubated 20 hour at 4° C. Finally, 100 μL tetramethylbenzidine (TMB) (Kem-En-Tec cat.4380H) was added and the plate was incubated 15 minutes at […] in the dark. All the above incubation steps included shaking at 300 rpm. After each incubation step, the plate was washed five times. The TMB reaction was stopped by adding 100 μL of stopping solution (1% H₂SO₄) and measured at 450 nm with 650 nm as the reference.
(§2) Like type XXIII collagen, type XIII and XXV collagens are also transmembrane collagens and share highly similar sequences in their C-terminus (FIG. 1A). To fully investigate the specificity of the antibody, a series of peptides were synthesized and included in the inhibition test. […] (SEQ. ID No. 5) (FIG. 1B).

The target in assay [2] is T2, elongated peptide GLPVPGCWHKA
T2 peptide: GLPVPGCWHKA
The assay is described as above. Here is the method:
as §1, §2

Assay [3] concerns the target T3, type XIII collagen C-terminal peptide GLPVQGCWNK
T3 construct: Synthetic peptide (Genscript); also called peptide from type XIII collagen; deselection peptide
T3 peptide: GLPVQGCWNK
The assay is described as above. Here is the method:
as §1, §2

Assay [4] concerns the target T4, type XXV collagen C-terminal peptide GLPMPGCWQK
T4 construct: Synthetic peptide (Genscript); also called peptide from type XXV collagen; deselection peptide
T4 peptide: GLPMPGCWQK
The description is as above. Here is the method:
as §1, §2

The target in assay [5] is T5, selection peptide GLPVPGCWHK, the last 10 amino acids of the C-terminus of type XXIII collagen alpha 1 chain ….
T5 construct: Synthetic peptide (Genscript); also called target peptide; standard peptide
T5 peptide: GLPVPGCWHK
The assay is described as follows: figure legend (FIG. 1A/1B), PRO-C23 competitive ELISA. Here is the method:
as §1, §2
Background: An ELISA detects its analyte on a solid surface through an enzyme-linked reagent.

B1: monoclonal antibody 10F6 (antibody, mouse IgG2b, kappa, V domains shown)
VH: EVKLVESGGGLVKPGGSLKLSCAASGFTFSSYAMSWVRQTPEKRLAWVASISTAGRTYYPDTVRGRITISRDNARNILYLQMSSLRSEDTAIYYCARPDYDYDGYINWGQGTLVTVSA
VL: DIVMTQAAFSNPVTLGTSAYISCRSSKSLLHSNGVTYLYWYLQKPGQSPQLLIYQMSNLASGVPDRFSSSGSGTDFTLRISRVEAEDVGVYYCAQNLELPLTFGAGTKLELKR
notes: Mouse (Balb/C) hybridoma antibody purified on an IgG column; also called PRO-C23 antibody 10F6; PRO-C23 antibody
For the molecule B1, the binding result is reported as “no binding” in assay [1]; “no binding” in assay [2]; “no binding” in assay [3]; “no binding” in assay [4]; “binds” in assay [5].
